Reference: the supplement of paper PMC7125110
± gives the standard error. For some assays here: Fewer inactive variants are shown than the library holds.

B1: glmS ribozyme (parent)
chain: AUAAAAGCGCCAGAACUACAGAAAUGUAGUUGACGAGGAGGAGGUUUAUCGAAUUUUCGGCGGAUGCCUCCAAA

Key:
Conditions in all cases: with glucosamine-6-phosphate
glucosamine-6-phosphate [1] = variants of: B1; experiment: kcat; higher = faster cleavage; RNA array
How it was run: (§1)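 E. coli RNA polymerase transcribed barcoded ribozyme variants in situ on sequenced MiSeq chips, which were tracked via a hybridised Cy3 probe at 37 °C. Tiles were imaged over ~14 h after glucosamine-6-phosphate (40 μM to 10 mM) in HEPES/KCl/Mg(OAc)2 buffer was flowed in. Normalised per-tile medians were fit to one- or two-exponential decays for kobs, and kcat and KM came from weighted Michaelis–Menten fits.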

glucosamine-6-phosphate [2] = variants of: B1; experiment: KM; higher = weaker cofactor use; RNA array
How it was run: as §1

glucosamine-6-phosphate [3] = variants of: B1; experiment: self-cleavage kobs at 40 uM GlcN6P; higher = faster cleavage; RNA array
How it was run: as §1

glucosamine-6-phosphate [4] = variants of: B1; experiment: self-cleavage kobs at 160 uM GlcN6P; higher = faster cleavage; RNA array
How it was run: as §1

glucosamine-6-phosphate [5] = variants of: B1; experiment: self-cleavage kobs at 640 uM GlcN6P; higher = faster cleavage; RNA array
How it was run: as §1

glucosamine-6-phosphate [6] = variants of: B1; experiment: self-cleavage kobs at 2500 uM GlcN6P; higher = faster cleavage; RNA array
How it was run: as §1

glucosamine-6-phosphate [7] = variants of: B1; experiment: self-cleavage kobs at 10000 uM GlcN6P; higher = faster cleavage; RNA array
How it was run: as §1

G40A U45A
kcat (glucosamine-6-phosphate [1]): 0.00316 ± 0.00068 s⁻¹ | KM (glucosamine-6-phosphate [2]): 510 ± 160 µM | self-cleavage kobs at 40 uM GlcN6P (glucosamine-6-phosphate [3]): 0.000251 ± 3.8e-05 s⁻¹ | self-cleavage kobs at 160 uM GlcN6P (glucosamine-6-phosphate [4]): 0.000585 ± 0.00027 s⁻¹ | self-cleavage kobs at 640 uM GlcN6P (glucosamine-6-phosphate [5]): 0.00157 ± 0.00029 s⁻¹ | self-cleavage kobs at 2500 uM GlcN6P (glucosamine-6-phosphate [6]): 0.00221 ± 0.00084 s⁻¹ | self-cleavage kobs at 10000 uM GlcN6P (glucosamine-6-phosphate [7]): 0.00427 ± 0.00099 s⁻¹

G13A U56A A64G
kcat (glucosamine-6-phosphate [1]): 0.000331 ± 5.8e-05 s⁻¹ | KM (glucosamine-6-phosphate [2]): 2310 ± 840 µM | self-cleavage kobs at 640 uM GlcN6P (glucosamine-6-phosphate [5]): 8.33e-05 ± 2.5e-05 s⁻¹ | self-cleavage kobs at 2500 uM GlcN6P (glucosamine-6-phosphate [6]): 0.000158 ± 3e-05 s⁻¹ | self-cleavage kobs at 10000 uM GlcN6P (glucosamine-6-phosphate [7]): 0.000291 ± 6.6e-05 s⁻¹

A33C U65A
kcat (glucosamine-6-phosphate [1]): 4.76e-05 ± 2.3e-06 s⁻¹ | KM (glucosamine-6-phosphate [2]): 617 ± 240 µM | self-cleavage kobs at 10000 uM GlcN6P (glucosamine-6-phosphate [7]): 4.47e-05 ± 1.6e-05 s⁻¹

U47C U57C
kcat (glucosamine-6-phosphate [1]): 6.99e-05 ± 7.5e-06 s⁻¹ | self-cleavage kobs at 2500 uM GlcN6P (glucosamine-6-phosphate [6]): 5.62e-05 ± 1.1e-05 s⁻¹ | self-cleavage kobs at 10000 uM GlcN6P (glucosamine-6-phosphate [7]): 6.24e-05 ± 9.4e-06 s⁻¹

U55G G59C
kcat (glucosamine-6-phosphate [1]): 1.2e-05 ± 2.5e-06 s⁻¹

G9A A48G G51A G63A
kcat (glucosamine-6-phosphate [1]): 1.15e-05 ± 4.5e-06 s⁻¹

C16U A39U
kcat (glucosamine-6-phosphate [1]): 0.0586 ± 0.022 s⁻¹ | KM (glucosamine-6-phosphate [2]): 9390 ± 4200 µM | self-cleavage kobs at 160 uM GlcN6P (glucosamine-6-phosphate [4]): 0.00114 ± 0.00038 s⁻¹ | self-cleavage kobs at 640 uM GlcN6P (glucosamine-6-phosphate [5]): 0.00392 ± 0.00055 s⁻¹ | self-cleavage kobs at 2500 uM GlcN6P (glucosamine-6-phosphate [6]): 0.0111 ± 0.0017 s⁻¹ | self-cleavage kobs at 10000 uM GlcN6P (glucosamine-6-phosphate [7]): 0.034 ± 0.0081 s⁻¹

A12C A39G
kcat (glucosamine-6-phosphate [1]): 0.0192 ± 0.0069 s⁻¹ | KM (glucosamine-6-phosphate [2]): 2230 ± 1000 µM | self-cleavage kobs at 40 uM GlcN6P (glucosamine-6-phosphate [3]): 0.000367 ± 4.7e-05 s⁻¹ | self-cleavage kobs at 160 uM GlcN6P (glucosamine-6-phosphate [4]): 0.00113 ± 0.00026 s⁻¹ | self-cleavage kobs at 640 uM GlcN6P (glucosamine-6-phosphate [5]): 0.00513 ± 0.0012 s⁻¹ | self-cleavage kobs at 2500 uM GlcN6P (glucosamine-6-phosphate [6]): 0.00799 ± 0.0015 s⁻¹ | self-cleavage kobs at 10000 uM GlcN6P (glucosamine-6-phosphate [7]): 0.0245 ± 0.0049 s⁻¹

U49A U55A
kcat (glucosamine-6-phosphate [1]): 3.61e-05 ± 1.5e-06 s⁻¹ | KM (glucosamine-6-phosphate [2]): 5970 ± 610 µM | self-cleavage kobs at 10000 uM GlcN6P (glucosamine-6-phosphate [7]): 2.26e-05 ± 9.3e-06 s⁻¹

U55G U56G
kcat (glucosamine-6-phosphate [1]): 0.0156 ± 0.0072 s⁻¹ | self-cleavage kobs at 40 uM GlcN6P (glucosamine-6-phosphate [3]): 0.000205 ± 3e-05 s⁻¹ | self-cleavage kobs at 160 uM GlcN6P (glucosamine-6-phosphate [4]): 0.000797 ± 0.00014 s⁻¹ | self-cleavage kobs at 640 uM GlcN6P (glucosamine-6-phosphate [5]): 0.00307 ± 0.00039 s⁻¹ | self-cleavage kobs at 2500 uM GlcN6P (glucosamine-6-phosphate [6]): 0.00561 ± 0.00078 s⁻¹ | self-cleavage kobs at 10000 uM GlcN6P (glucosamine-6-phosphate [7]): 0.0215 ± 0.0038 s⁻¹

A15G C34G C68A
kcat (glucosamine-6-phosphate [1]): 2.44e-05 ± 5.8e-06 s⁻¹

G40A A52G
kcat (glucosamine-6-phosphate [1]): 0.000342 ± 4.4e-05 s⁻¹ | KM (glucosamine-6-phosphate [2]): 1490 ± 450 µM | self-cleavage kobs at 640 uM GlcN6P (glucosamine-6-phosphate [5]): 0.000102 ± 1.6e-05 s⁻¹ | self-cleavage kobs at 2500 uM GlcN6P (glucosamine-6-phosphate [6]): 0.000251 ± 2.8e-05 s⁻¹ | self-cleavage kobs at 10000 uM GlcN6P (glucosamine-6-phosphate [7]): 0.000277 ± 3e-05 s⁻¹

G38U U49A C67A
kcat (glucosamine-6-phosphate [1]): 1.26e-05 ± 4.6e-06 s⁻¹

U30G G40C
kcat (glucosamine-6-phosphate [1]): 0.000669 ± 0.0001 s⁻¹ | KM (glucosamine-6-phosphate [2]): 864 ± 240 µM | self-cleavage kobs at 40 uM GlcN6P (glucosamine-6-phosphate [3]): 3.69e-05 ± 1.2e-05 s⁻¹ | self-cleavage kobs at 160 uM GlcN6P (glucosamine-6-phosphate [4]): 0.000103 ± 1.9e-05 s⁻¹ | self-cleavage kobs at 640 uM GlcN6P (glucosamine-6-phosphate [5]): 0.000265 ± 3.4e-05 s⁻¹ | self-cleavage kobs at 2500 uM GlcN6P (glucosamine-6-phosphate [6]): 0.000619 ± 8.6e-05 s⁻¹ | self-cleavage kobs at 10000 uM GlcN6P (glucosamine-6-phosphate [7]): 0.000544 ± 0.0001 s⁻¹

G32C G43U
kcat (glucosamine-6-phosphate [1]): < 1e-05 s⁻¹ | self-cleavage kobs at 40 uM GlcN6P (glucosamine-6-phosphate [3]): < 1e-05 s⁻¹ | self-cleavage kobs at 160 uM GlcN6P (glucosamine-6-phosphate [4]): < 1e-05 s⁻¹ | self-cleavage kobs at 640 uM GlcN6P (glucosamine-6-phosphate [5]): < 1e-05 s⁻¹ | self-cleavage kobs at 10000 uM GlcN6P (glucosamine-6-phosphate [7]): < 1e-05 s⁻¹

A36U G38U
kcat (glucosamine-6-phosphate [1]): < 1e-05 s⁻¹ | self-cleavage kobs at 10000 uM GlcN6P (glucosamine-6-phosphate [7]): < 1e-05 s⁻¹

A53U C67A
kcat (glucosamine-6-phosphate [1]): 0.00367 ± 0.00077 s⁻¹ | KM (glucosamine-6-phosphate [2]): 785 ± 230 µM | self-cleavage kobs at 40 uM GlcN6P (glucosamine-6-phosphate [3]): 0.000214 ± 2.6e-05 s⁻¹ | self-cleavage kobs at 160 uM GlcN6P (glucosamine-6-phosphate [4]): 0.000559 ± 8.4e-05 s⁻¹ | self-cleavage kobs at 640 uM GlcN6P (glucosamine-6-phosphate [5]): 0.0014 ± 0.00022 s⁻¹ | self-cleavage kobs at 10000 uM GlcN6P (glucosamine-6-phosphate [7]): 0.00376 ± 0.00054 s⁻¹

A33C A42G
kcat (glucosamine-6-phosphate [1]): 0.00107 ± 0.0002 s⁻¹ | KM (glucosamine-6-phosphate [2]): 5240 ± 1500 µM | self-cleavage kobs at 640 uM GlcN6P (glucosamine-6-phosphate [5]): 0.000127 ± 2e-05 s⁻¹ | self-cleavage kobs at 2500 uM GlcN6P (glucosamine-6-phosphate [6]): 0.000266 ± 0.0001 s⁻¹ | self-cleavage kobs at 10000 uM GlcN6P (glucosamine-6-phosphate [7]): 0.000716 ± 0.00011 s⁻¹
